From paper PMC11257959, “Structural basis of the histone ubiquitination read–write mechanism of RYBP–PRC1” (Nature Structural & Molecular Biology, 2024)
Numbering of substitutions follows the chain as printed. Names may count otherwise.

T1: RING1B:BMI1 full-length heterodimer (human, UniProt Q99496 1-336; P35226 1-326)
T1 construct: also called RING1B:BMI1 dimer; source: High Five insect cells (baculovirus, coexpressed from one vector), purified (Ni-NTA, twin strep-tag cleavage, SEC); not shown: twin strep-tag, N-terminal, cleaved; His6, C-terminal, kept
T1 sequence (looked up) 1: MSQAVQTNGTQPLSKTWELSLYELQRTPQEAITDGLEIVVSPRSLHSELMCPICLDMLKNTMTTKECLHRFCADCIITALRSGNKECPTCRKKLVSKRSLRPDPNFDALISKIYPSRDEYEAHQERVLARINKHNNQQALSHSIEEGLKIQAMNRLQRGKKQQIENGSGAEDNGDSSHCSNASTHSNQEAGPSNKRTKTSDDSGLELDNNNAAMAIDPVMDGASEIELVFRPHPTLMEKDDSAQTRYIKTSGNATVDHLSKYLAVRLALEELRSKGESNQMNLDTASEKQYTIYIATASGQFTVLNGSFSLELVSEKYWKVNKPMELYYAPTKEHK
T1 sequence (looked up) 2: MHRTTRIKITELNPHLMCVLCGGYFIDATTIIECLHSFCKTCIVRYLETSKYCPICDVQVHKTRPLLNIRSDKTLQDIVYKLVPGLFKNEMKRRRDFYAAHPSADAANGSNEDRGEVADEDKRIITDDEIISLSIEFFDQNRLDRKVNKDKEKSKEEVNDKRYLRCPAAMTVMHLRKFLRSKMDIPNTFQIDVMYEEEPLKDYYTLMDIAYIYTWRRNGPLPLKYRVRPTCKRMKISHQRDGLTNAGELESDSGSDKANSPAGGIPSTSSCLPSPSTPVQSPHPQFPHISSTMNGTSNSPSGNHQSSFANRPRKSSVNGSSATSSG

T2: human RING1B, full length (human, UniProt Q99496 1-336)
T2 construct: In the cryo-EM sample a subunit of vPRC1; residues 15-115 were built; source: High Five insect cells (baculovirus), coexpressed with BMI1, purified; not shown: twin strep-tag, N-terminal, cleaved
T2 sequence (looked up): T1 sequence (looked up) 1

B1: human RYBP, full length (natural protein, UniProt Q8N488 1-228, looked up)
chain: MTMGDKKSPTRPKRQAKPAADEGFWDCSVCTFRNSAEAFKCSICDVRKGTSTRKPRINSQLVAQQVAQQYATPPPPKKEKKEKVEKQDKEKPEKDKEISPSVTKKNTNKKTKPKSDILKDPPSEANSIQSANATTKTSETNHTSRPRLKNVDRSTAQQLAVTVGNVTVIITDFKEKTRSSSTSSSTVTSSAGSEQQNQSSSGSESTDKGSSRSSTPKGDMSAVNDESF
notes: In the cryo-EM sample it stood as a subunit of vPRC1; residues 23-58 were built; source: High Five insect cells (baculovirus), purified (Ni-NTA, His tag cleavage, reverse Ni-NTA); not shown: His6, N-terminal, cleaved
B2: RYBP_(T31A/F32A) (natural protein, human, UniProt Q8N488 1-228, looked up)
chain: B1 chain with T31A, F32A
notes: source: High Five insect cells (baculovirus), purified following the same procedure as the wild-type protein; not shown: His6, N-terminal, cleaved
B3: RYBP_(R47A/R53A/R56A) (natural protein, human, UniProt Q8N488 1-228, looked up)
chain: B1 chain with R47A, R53A, R56A
notes: as for B2
B4: human BMI1, full length (natural protein, UniProt P35226 1-326, looked up)
chain: T1 sequence (looked up) 2
notes: In the cryo-EM sample a subunit of vPRC1; residues 3-107 were built; also called BIM1; source: High Five insect cells (baculovirus), coexpressed with RING1B, purified; not shown: His6, C-terminal, kept

Assays:
[1] = target: T1, RING1B:BMI1 full-length heterodimer; test: SEC; purified RYBP mixed with purified RING1B:BMI1 at a 1:1 molar ratio, cation exchange, then SEC in 25 mM Tris-HCl pH 7, 150 mM NaCl, 10% glycerol, 2 mM DTT; conditions: both partners purified
human ubiquitin = target: T3, human ubiquitin (human, UniProt P0CG47 1-76, conjugated to H2A); test: cryo-EM structure; vPRC1:Nuc_(H2Aub1); Nuc_(H2Aub1)/vPRC1 ratio of 1:5 in UB buffer, 1 h at 4 °C; biotinylated nucleosomes bound to streptavidin-coated grids, two additional washes; conditions: both partners purified
T3 construct: human ubiquitin, the cut product of the precursor; Stood as the ubiquitin moiety of H2Aub1 in the nucleosome; source: bought: Boston Biochem; conjugated to H2A of the nucleosome in vitro

[2] = target: T4, Drosophila melanogaster histone H4 (D. melanogaster, UniProt P84040 1-103); test: cryo-EM structure; vPRC1:Nuc; Nuc/vPRC1 ratio of 1:10 in UB buffer, 1 h at 4 °C; biotinylated nucleosomes bound to streptavidin-coated grids; conditions: both partners purified
T4 construct: histone H4, D. melanogaster; Stood within the nucleosome; source: bought: The Histone Source (Colorado State University); in the reconstituted nucleosome

[3] = target: T2, human RING1B, full length; test: SEC; RING1B and BMI1 coexpressed in insect cells from one vector, Ni-NTA (His tag on BMI1), tag cleavage, SEC (S200); conditions: partners not purified

Row | Binder | binding result [1] | binding result (human ubiquitin) | binding result [2] | binding result [3]
1 | B1 | binds | binds |  | 
2 | B2 | binds |  |  | 
3 | B3 | binds |  |  | 
4 | B4 |  |  | binds | binds
